Source: US8242083B2, “Kinase substrates” (PerkinElmer Health Sciences, Inc., priority 2008, dated 2012)

Assays:
Format in all cases: biochemical
TXK = target: T1, TXK (Homo sapiens, UniProt P42681); test: TR-FRET kinase assay, TXK; conditions: Kinase Concentration 3 nM; 50 nM ULight-labeled substrate, 200 micromolar ATP, 2 hours
T1 sequence (P42681 1-527): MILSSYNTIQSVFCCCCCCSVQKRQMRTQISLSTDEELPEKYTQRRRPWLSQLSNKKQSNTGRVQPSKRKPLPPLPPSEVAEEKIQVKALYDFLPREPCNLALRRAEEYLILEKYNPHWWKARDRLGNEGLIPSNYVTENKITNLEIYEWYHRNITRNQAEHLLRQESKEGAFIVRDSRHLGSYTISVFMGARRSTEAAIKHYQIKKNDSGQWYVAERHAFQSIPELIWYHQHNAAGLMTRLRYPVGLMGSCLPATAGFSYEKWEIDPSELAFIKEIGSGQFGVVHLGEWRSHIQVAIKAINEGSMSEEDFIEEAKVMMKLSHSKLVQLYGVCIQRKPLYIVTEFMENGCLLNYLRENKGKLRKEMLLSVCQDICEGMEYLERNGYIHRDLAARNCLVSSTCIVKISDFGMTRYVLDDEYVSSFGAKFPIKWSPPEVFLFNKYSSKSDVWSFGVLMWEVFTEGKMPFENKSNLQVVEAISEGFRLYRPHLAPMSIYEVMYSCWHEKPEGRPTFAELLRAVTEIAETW
Description: (§1) TR-FRET kinase assays are performed under standardized conditions: various individual kinases are incubated with 50 nM of kinase substrate BRB1 labeled with the TR-FRET acceptor dye ULight (PerkinElmer) and 200 micromolar ATP in 10 μL of kinase assay buffer (50 mM HEPES pH7.5, 10 mM MgCl2, 3 mM MnCl2, 1 mM EGTA, 2 mM DTT and 0.01% Tween-20) for 2 hours at room temperature. Reactions are stopped with EDTA, and anti-phospho-tyrosine antibodies (clone PT66) labeled with the TR-FRET europium chelate donor dye are added to a final concentration of 2 nM in a final volume of 20 μL. The TR-FRET signal emitted at 665 nm is read one hour after the addition of antibodies using a TR-FRET plate reader such as the Envision® Multilabel Plate reader (PerkinElmer). The emitted signal at 665 nm is proportional to the extent of peptide phosphorylation, Control reactions indicative of background are performed excluding ATP from the reaction.
(§2) Assay conditions are identical to those used described for FIG. 1.

EphB4 = target: T2, EphB4 (Homo sapiens, UniProt P54760); test: TR-FRET kinase assay, EphB4; conditions: Kinase Concentration 0.5 nM; 50 nM ULight-labeled substrate, 200 micromolar ATP, 2 hours
T2 sequence (P54760 16-987): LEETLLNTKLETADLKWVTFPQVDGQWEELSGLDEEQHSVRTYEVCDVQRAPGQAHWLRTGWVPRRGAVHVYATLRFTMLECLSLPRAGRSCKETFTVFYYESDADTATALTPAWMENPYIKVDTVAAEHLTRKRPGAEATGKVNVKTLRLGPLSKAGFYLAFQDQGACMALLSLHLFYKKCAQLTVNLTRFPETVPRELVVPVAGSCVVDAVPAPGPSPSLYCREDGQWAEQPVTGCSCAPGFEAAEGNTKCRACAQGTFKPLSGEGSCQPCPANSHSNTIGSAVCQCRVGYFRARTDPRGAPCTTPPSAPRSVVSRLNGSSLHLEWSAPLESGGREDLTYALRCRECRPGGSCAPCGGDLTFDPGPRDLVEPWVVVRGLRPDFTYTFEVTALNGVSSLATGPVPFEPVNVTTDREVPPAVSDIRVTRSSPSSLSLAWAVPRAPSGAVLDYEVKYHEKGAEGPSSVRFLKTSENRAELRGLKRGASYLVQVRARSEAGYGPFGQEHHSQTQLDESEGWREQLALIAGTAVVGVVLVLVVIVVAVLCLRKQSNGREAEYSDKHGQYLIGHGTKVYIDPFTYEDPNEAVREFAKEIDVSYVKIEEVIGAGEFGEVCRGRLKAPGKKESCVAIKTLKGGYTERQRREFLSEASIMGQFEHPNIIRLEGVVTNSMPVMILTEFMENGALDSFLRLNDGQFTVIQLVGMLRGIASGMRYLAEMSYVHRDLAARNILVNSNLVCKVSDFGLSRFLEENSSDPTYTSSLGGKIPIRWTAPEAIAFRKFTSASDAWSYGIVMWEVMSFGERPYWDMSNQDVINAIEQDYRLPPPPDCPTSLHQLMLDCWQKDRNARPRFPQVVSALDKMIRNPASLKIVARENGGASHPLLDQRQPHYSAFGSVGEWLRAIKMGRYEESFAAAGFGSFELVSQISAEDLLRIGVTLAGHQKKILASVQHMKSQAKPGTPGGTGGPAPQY
Description: as §1, §2

TIE2 = TIE2 (Homo sapiens, UniProt Q02763); test: TR-FRET kinase assay, TIE2; conditions: Kinase Concentration 0.5 nM; 50 nM ULight-labeled substrate, 200 micromolar ATP, 2 hours
Description: as §1, §2

TRKA (NTRK1) = TRKA (NTRK1) (Homo sapiens, UniProt P04629); test: TR-FRET kinase assay, TRKA (NTRK1); conditions: Kinase Concentration 0.5 nM; 50 nM ULight-labeled substrate, 200 micromolar ATP, 2 hours
Description: as §1, §2

Sequence of TIE2 (Q02763 23-1124, species assumed): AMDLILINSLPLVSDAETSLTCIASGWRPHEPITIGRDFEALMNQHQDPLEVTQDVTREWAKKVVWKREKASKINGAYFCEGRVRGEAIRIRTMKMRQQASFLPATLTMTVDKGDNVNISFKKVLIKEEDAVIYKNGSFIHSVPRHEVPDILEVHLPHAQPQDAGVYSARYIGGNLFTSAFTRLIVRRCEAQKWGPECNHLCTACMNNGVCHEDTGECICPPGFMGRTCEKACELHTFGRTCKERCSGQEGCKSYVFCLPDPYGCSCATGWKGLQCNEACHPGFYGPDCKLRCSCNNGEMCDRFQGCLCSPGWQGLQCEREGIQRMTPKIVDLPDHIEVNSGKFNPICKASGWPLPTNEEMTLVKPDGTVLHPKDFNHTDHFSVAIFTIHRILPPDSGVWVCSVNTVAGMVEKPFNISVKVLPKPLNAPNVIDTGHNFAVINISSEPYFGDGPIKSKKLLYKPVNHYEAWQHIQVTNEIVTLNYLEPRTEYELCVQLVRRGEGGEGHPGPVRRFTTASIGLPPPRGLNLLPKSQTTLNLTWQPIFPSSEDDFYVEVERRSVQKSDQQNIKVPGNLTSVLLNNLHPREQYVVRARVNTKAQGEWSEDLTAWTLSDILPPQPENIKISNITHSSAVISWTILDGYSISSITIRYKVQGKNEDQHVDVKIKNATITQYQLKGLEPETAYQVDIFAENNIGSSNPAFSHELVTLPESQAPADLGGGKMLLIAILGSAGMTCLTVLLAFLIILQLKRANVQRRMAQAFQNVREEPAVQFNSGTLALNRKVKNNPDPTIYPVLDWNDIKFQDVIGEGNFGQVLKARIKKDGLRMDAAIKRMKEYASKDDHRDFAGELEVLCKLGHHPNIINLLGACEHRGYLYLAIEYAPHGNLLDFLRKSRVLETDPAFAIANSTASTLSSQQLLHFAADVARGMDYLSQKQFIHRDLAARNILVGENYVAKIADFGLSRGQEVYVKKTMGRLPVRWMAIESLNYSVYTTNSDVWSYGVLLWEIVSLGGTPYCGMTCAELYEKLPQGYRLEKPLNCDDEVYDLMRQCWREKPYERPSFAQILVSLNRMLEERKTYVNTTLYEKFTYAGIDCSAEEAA
Sequence of TRKA (NTRK1) (P04629 33-796, species assumed): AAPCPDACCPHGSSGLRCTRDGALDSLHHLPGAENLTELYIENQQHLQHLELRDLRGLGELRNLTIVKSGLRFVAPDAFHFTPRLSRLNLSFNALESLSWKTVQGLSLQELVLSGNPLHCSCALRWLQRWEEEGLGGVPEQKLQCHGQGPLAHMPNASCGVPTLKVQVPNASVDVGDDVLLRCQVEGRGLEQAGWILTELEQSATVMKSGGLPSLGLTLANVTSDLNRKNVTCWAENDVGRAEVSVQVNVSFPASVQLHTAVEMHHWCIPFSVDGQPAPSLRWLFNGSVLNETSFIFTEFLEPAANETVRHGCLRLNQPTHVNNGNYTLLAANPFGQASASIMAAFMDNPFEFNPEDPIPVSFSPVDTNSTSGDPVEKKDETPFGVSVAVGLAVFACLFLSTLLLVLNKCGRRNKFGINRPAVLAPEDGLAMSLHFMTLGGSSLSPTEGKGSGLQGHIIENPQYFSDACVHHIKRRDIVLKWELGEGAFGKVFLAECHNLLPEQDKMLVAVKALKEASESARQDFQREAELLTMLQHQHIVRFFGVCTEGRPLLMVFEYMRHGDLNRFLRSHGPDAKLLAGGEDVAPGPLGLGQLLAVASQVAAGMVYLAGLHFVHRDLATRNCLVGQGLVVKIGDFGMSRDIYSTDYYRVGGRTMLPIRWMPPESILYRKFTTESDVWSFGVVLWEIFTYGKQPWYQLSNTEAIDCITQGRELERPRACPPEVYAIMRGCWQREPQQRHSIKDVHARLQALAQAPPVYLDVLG

C AYE AYE AYE K EYA EYA EYA K AYA EYE R (CAYEAYEAYEKEYAEYAEYAKAYAEYER; tyrosine kinase substrate peptide) [BRB1]
Signal to Noise ratio with BRB1 Peptide (TXK): 5.9 | Signal to Noise ratio with BRB1 Peptide (EphB4): 29.8 | Signal to Noise ratio with BRB1 Peptide (TIE2): 17.7 | Signal to Noise ratio with BRB1 Peptide (TRKA (NTRK1)): 23.2
